Experimental data from patent US20230025129A1 (KYMAB, published 2023).
Residue numbers refer to the chain shown, from its start. Names and notes keep the numbering of the source.

T1: human matriptase-2 ECD protein his tag (human, UniProt Q8IU80 78-811)
T1 construct: also called human MTP-2 ECD; huMTP-2
T1 sequence: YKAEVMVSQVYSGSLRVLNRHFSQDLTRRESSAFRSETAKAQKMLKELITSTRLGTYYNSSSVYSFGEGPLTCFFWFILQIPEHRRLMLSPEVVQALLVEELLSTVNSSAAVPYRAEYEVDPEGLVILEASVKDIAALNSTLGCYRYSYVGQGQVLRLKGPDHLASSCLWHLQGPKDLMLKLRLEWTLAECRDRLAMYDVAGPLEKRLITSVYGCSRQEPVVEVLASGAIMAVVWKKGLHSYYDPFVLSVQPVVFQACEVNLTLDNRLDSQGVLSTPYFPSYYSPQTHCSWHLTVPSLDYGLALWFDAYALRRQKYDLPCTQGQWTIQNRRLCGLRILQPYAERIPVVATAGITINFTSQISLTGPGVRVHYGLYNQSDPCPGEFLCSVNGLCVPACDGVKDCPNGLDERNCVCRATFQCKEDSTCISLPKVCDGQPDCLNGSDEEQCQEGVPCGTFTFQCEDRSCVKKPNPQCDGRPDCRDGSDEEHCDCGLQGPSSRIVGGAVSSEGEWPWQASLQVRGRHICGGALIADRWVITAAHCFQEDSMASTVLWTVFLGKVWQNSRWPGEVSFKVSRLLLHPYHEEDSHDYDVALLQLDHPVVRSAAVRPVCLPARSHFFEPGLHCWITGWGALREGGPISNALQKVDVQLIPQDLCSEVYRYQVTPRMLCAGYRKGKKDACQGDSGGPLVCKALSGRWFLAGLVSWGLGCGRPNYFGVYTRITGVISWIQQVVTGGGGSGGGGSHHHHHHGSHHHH

T2: mouse matriptase-2 ECD protein his tag (mouse, UniProt Q9DBI0 80-811)
T2 construct: aa 80-811 of Q9DBI0 with C-terminal linker and His tag; also called mouse MTP-2 ECD; moMTP-2
T2 sequence: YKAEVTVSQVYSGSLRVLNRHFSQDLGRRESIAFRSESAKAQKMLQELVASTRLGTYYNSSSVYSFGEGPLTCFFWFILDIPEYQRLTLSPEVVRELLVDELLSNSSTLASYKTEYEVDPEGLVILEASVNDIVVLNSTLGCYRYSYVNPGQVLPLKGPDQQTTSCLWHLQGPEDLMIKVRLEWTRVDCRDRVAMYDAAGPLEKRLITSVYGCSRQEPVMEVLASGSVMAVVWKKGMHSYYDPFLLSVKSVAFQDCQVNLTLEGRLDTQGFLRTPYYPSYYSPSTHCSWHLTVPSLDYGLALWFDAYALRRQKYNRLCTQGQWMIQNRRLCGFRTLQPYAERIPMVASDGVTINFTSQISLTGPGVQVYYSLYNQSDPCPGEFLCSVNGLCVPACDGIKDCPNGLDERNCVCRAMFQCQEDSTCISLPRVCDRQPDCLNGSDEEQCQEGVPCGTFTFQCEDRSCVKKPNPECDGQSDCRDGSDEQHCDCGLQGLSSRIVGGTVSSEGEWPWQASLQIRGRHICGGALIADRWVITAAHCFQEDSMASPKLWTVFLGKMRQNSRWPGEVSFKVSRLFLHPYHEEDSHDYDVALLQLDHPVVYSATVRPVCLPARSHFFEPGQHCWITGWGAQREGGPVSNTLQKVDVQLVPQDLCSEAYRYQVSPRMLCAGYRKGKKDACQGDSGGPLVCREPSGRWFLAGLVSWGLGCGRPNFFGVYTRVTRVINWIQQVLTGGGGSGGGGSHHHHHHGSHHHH

B1: NORI-006 (antibody, human IgG4 S228P, kappa, V domains shown)
VH: EVQLVESGGGLIKPGRSLRLSCTGSGFTFGDFGLSWFRQAPGKGLEWISFIRSKPYGGTTDYAASVKGRFTISRDDSKNVAYLQMNSLKTEDTAVYYCARNEILTGYYIFDYWGQGTLVTVSS
VL: DIQMTQSPSSLSASLGDRVTITCQASQDINNYLNWYQVQPGKAPKLLIFDASILETGVPSRFSGSGSGTDFSFTISSLQPEDIATYYCQQYDNLPLTFGGGTKVDFKR
notes: human IgG4PE, kappa
B2: NORI-003 (antibody, human IgG4 S228P, kappa, V domains shown)
VH: EVQLVESGGGLVKPGRSLRLSCTGSGFTFGDFGMSWFRQAPGKGLEWVGFIRSKPYGGTTDYAPSVRGRFSISRDDSKGIVYLQMNSLRTEDTAVYYCSRNEILTGYYIFDYWGQGTLVTVSS
VL: B1 VL with Q27H, N30T, N34I, V38Q, Q39K, K45R, S72T, I83F, D92Y, F106I
notes: human IgG4PE, kappa; NORI-002 with the free cysteine of the VH domain mutated (printed as 'C49C')
B3: NORI-011 (antibody, human IgG4 S228P, lambda)
heavy: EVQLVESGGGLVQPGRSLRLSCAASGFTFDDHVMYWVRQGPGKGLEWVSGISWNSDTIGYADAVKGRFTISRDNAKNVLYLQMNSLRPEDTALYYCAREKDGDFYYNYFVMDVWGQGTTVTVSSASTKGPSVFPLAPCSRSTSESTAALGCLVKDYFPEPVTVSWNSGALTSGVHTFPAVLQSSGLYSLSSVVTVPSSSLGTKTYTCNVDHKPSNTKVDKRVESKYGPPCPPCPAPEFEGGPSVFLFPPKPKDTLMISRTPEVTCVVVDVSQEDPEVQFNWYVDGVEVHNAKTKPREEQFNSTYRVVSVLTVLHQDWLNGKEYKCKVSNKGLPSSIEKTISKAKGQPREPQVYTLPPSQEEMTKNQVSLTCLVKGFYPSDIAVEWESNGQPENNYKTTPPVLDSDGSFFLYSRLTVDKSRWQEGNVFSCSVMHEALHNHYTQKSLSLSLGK
light: QSALTQPPSASGSPGQSVTISCTGTSSDVGFYNFVSWYQQHPDKAPKVMIYEVSKRPSGVPDRFSGSKSGNTASLTVSGLQAEDEADYYCSSYAGSNKVVFGGGTKLTVLGQPKAAPSVTLFPPSSEELQANKATLVCLISDFYPGAVTVAWKADSSPVKAGVETTTPSKQSNNKYAASSYLSLTPEQWKSHRSYSCQVTHEGSTVEKTVAPTECS
notes: human IgG4PE, lambda; NORI-010 with a P124S mutation in the VH domain
B4: NORI-013 (antibody, human IgG4 S228P, lambda, V domains shown)
VH: EVQLVESGGGLIQAGRSLRLSCAASGFTFDEHVIYWVRQIPGKGLEWISSISWKSDIIAYADSVKGRFTISRDNAKNALYLQMNSLRAEDTALYYCAREKDGDFYYYYFAMDVWGQGTTVTVSS
VL: QSALTQPPSASGSPGQSVTLSCTGTSSDVGYYNYVSWYLQHPGKAPKLMIYEVSKRPSGVPDRFSGSKSANTASLTVSGLQAEDEADYYCSSYAGSNKVVFGGGTKVTVLG
notes: human IgG4PE, lambda
B5: NORI-014 (antibody, human IgG4 S228P, lambda, V domains shown)
VH: B4 VH with I34M, S52T
VL: B4 VL
notes: human IgG4PE, lambda
B6: NORI-008 (antibody, human IgG4 S228P, kappa, V domains shown)
VH: QVQLQESGPGLVKPSETLSLTCSVSGGSVSSGRYYWTWIRQPPGKGLEWIGYISNSGNTNYNPSLKSRVTISLDTSKKQFSLSLSAVTAADTAVYYCARGFIYDYWFDPWGQGSLVTVSS
VL: DSQMTQSPSSLSASVGDRVTITCQASQDIDNYLNWYQQRPGKAPKLLIYDASKLETGVPSRFSGSGSGTDFTFTISSLQPEDFATYYCQQYGNLPITFGQGTRLDIKR
notes: human IgG4PE, kappa, in the in vitro assays; a mouse IgG1 format was used in one in vivo study only; also called NORI-008 hulgG4PE; NORI-008 IgG

Key:
[1] = molecular target: T1, human matriptase-2 ECD protein his tag; assay: SPR, his-tagged MTP-2 ECD protein (Table W)
Experimental: (§1) Off-rate screening was performed by surface plasmon resonance (SPR), using a Biacore 8K system (GE Healthcare). Anti-human Fc mix (˜1000 RU) were immobilised in both active and reference channels in HBS-P+ buffer (GE BR100671) pH 7.4. Anti-MTP-2 hulgG4PE antibodies were then captured for 60 sec at 10 μl/min at 1 μg/ml concentration (approximatively 35 and 50 RU were captured) only on the active channel. MTP-2 ECD protein analytes were then injected (at 100, 25, 6.25, 1.56 and 0 nM concentrations) for 120 sec (association time) at 30 μl/min and dissociation monitored for 600 sec. Multiple cycle kinetics mode was used with all 8 channels being used. Reference and background were subtracted from the sensorgrams for each antibody and data was fitted using a 1:1 interaction model in the Biacore evaluation software. Rmax, ka, kd globally fitted, RI=0.
NORI-011, NORI-008, NORI-003 and NORI-006 were all found to have cross-reactive binding to human, mouse, cyno and rat MTP-2 ECD proteins. […] The true KD value for NORI-008 could not be measured accurately for human or mouse MTP-2 due to a very slow off-rate.

[2] = molecular target: T2, mouse matriptase-2 ECD protein his tag; assay: SPR (Biacore 8K), huIgG4PE captured on anti-human Fc, MTP-2 ECD as analyte, 1:1 fit
Experimental: as §1

[3] = molecular target: T1, human matriptase-2 ECD protein his tag; assay: as above
Experimental: as §1

Binder	Kd [1]	Binding Late top conc [2]	Stoichiometry [2]	kon [2]	Binding Late top conc [3]	Kd [3]	Stoichiometry [3]	koff [3]	kon [3]	Kd [2]	koff [2]
B1	2.93 nM	–	–	–	–	–	–	–	–	–	–
B2	5.24 nM	–	–	–	–	–	–	–	–	–	–
B3	5.61 nM	–	–	–	–	–	–	–	–	–	–
B4	–	7.5	1.47	10500 M⁻¹ s⁻¹	14.6	1.79 nM	1.05	5.78e-05 s⁻¹	32200 M⁻¹ s⁻¹	–	–
B5	–	5.4	0.93	12100 M⁻¹ s⁻¹	10.7	1.71 nM	0.9	4.6e-05 s⁻¹	26900 M⁻¹ s⁻¹	–	–
B6	–	39.2	0.86	237000 M⁻¹ s⁻¹	35.8	0.0129 nM	0.72	1.47e-05 s⁻¹	1.14e+06 M⁻¹ s⁻¹	0.129 nM	3.05e-05 s⁻¹
